Test results: paper doi:10.1101/2024.02.17.580827 (bioRxiv, 2024)

T1: FolK (purified protein) (E. coli, UniProt P26281 1-159)
T1 sequence: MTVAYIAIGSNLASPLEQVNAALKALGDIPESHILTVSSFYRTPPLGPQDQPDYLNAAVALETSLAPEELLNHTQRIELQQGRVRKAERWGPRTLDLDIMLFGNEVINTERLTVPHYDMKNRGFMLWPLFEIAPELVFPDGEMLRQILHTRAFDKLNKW


target: T1, FolK (purified protein); experiment: Raman spectroscopy

Kd | Binder
22 µM | WT DHFR (purified protein) (enzyme) MISLIAALAVDRVIGMENAMPWNLPADLAWFKRNTLNKPVIMGRHTWESIGRPLPGRKNIILSSQPGTDDRVTWVKSVDEAIAACGDVPEIMVIGGGRVYEQFLPKAQKLYLTHIDAEVEGDTHFPDYEPDDWESVFSEFHDADAQNSHSYCFEILERR
10 µM | D144N DHFR (purified protein) (enzyme) MISLIAALAVDRVIGMENAMPWNLPADLAWFKRNTLNKPVIMGRHTWESIGRPLPGRKNIILSSQPGTDDRVTWVKSVDEAIAACGDVPEIMVIGGGRVYEQFLPKAQKLYLTHIDAEVEGDTHFPDYEPDDWESVFSEFHDANAQNSHSYCFEILERR
5.1 µM | N23V DHFR (purified protein) (enzyme) MISLIAALAVDRVIGMENAMPWVLPADLAWFKRNTLNKPVIMGRHTWESIGRPLPGRKNIILSSQPGTDDRVTWVKSVDEAIAACGDVPEIMVIGGGRVYEQFLPKAQKLYLTHIDAEVEGDTHFPDYEPDDWESVFSEFHDADAQNSHSYCFEILERR
8.1 µM | D132H DHFR (purified protein) (enzyme) MISLIAALAVDRVIGMENAMPWNLPADLAWFKRNTLNKPVIMGRHTWESIGRPLPGRKNIILSSQPGTDDRVTWVKSVDEAIAACGDVPEIMVIGGGRVYEQFLPKAQKLYLTHIDAEVEGDTHFPDYEPDHWESVFSEFHDADAQNSHSYCFEILERR
